Results on six substances are retold here after publication PMC6917767.

In one test the target is PARP1 (UniProt P09874). The test can be described thus: BLI, nucleosome immobilised, PARP1 titrated. The note with it: reference: H2A.X nucleosome; sites S139.
The target in test [1] is NUC167, nucleosome with a single double-helical turn linker DNA at both termini (H2A) (human). The test can be described thus: SPR; Biacore 3000, room temperature, 10 ul/min; nucleosome/NCP with biotinylated DNA (600-700 RU) immobilised on CM5 chips with neutravidin; 20 mM Tris pH 7.5, 150 mM NaCl; PARP1 1.15-18.5 nM or NPARP1 2.32-37 nM injected; kinetic titration, 1:1 fit.

Test [2] deals with NUC155, nucleosome with a single double-helical turn linker DNA at one terminus (H2A) (human). The test is described as above.
For test [3], the target named is 145 bp nucleosome core particle (NCP) with H2A (human). The description is as above.
The target in test [4] is nucleosome with a single double-helical turn linker DNA at one terminus, assembled with H2A (NUC155) (human) (UniProt P06899). Description: SPR; Biacore 3000, room temperature, 10 ul/min; nucleosome/NCP with biotinylated DNA (600-700 RU) immobilised on CM5 chips with neutravidin; PARP1 (1.15-18.5 nM) or NPARP1 (2.32-37 nM) injected consecutively (kinetic titration, 1:1 fit); 20 mM Tris pH 7.5, 150 mM NaCl.

Test [5] deals with 145 bp nucleosome core particle assembled with H2A (NCP) (human) (UniProt P06899). The test is described as above.
Test [6] addresses nucleosome with a single double-helical turn linker DNA at both termini, assembled with H2A (NUC167) (human) (UniProt P06899). The description is as above.
For test [7], the target named is NUC167, nucleosome with a single double-helical turn linker DNA at both termini (H2A) (human). The test can be described thus: BLI; Octet RED96e, 25 C; biotinylated nucleosome captured on streptavidin biosensors; PARP1 0.195-3.125 nM in PBST pH 7.4; association 120 s, dissociation 15 min; 1:1 model.
Test [8] has as its target NUC167 with γH2A.X [H2A.X (pS139)] in place of H2A (human) (UniProt P16104). Described as above.
In test [9] the target is NUC167 with H2A.X in place of H2A (human) (UniProt P16104). Described as above.
In test [10] the target is NUC167 with H2A.X-S139E (mutant mimic of γH2A.X) in place of H2A (human). The description is as above.
The target of test [11] is NUC167 nucleosome assembled with H2A.X in place of H2A (human) (UniProt P06899). The test can be described thus: BLI; Octet RED96e, 25 °C; biotinylated nucleosome captured on streptavidin biosensors; PARP1 0.195-3.125 nM in PBST pH 7.4 (150 mM NaCl, 0.05% Tween-20); association 120 s, dissociation 15 min; 1:1 model.
Test [12] deals with NUC167 nucleosome assembled with H2A.X-S139E (mutant mimic of γH2A.X) in place of H2A (human) (UniProt P06899). The test is described as above.
In test [13] the target is NUC167 nucleosome assembled with γH2A.X [H2A.X (pS139)] in place of H2A (human) (UniProt P06899). The test is described as above.
In test [14] the target is nucleosome with a single double-helical turn linker DNA at both termini, assembled with H2A (NUC167) (human) (UniProt P06899). The test is described as above.

As to “H2A.X (from UniProt P16104) H2A.X-S139E nucleosome”, the KD result with PARP1 was “stronger; reference 73.2 ± 0.3”.

For the substance “H2A.X (from UniProt P16104) γH2A.X (pS139) nucleosome”, the KD result with PARP1 is recorded as “stronger; reference 73.2 ± 0.3”.

As for “NPARP1 (N-terminal half of PARP1, amino acids 1-486) (from UniProt P09874 1-486) (domain or fragment)”, in test [1], the Kd was 8.13 nM, the koff came to 0.0244 s⁻¹ and the kon was found to be 3e+06 M⁻¹ s⁻¹. In [2], this substance showed a Kd of 17.3 nM, a koff of 0.00107 s⁻¹ and a kon of 61900 M⁻¹ s⁻¹. In test [3], the Kd was 187 nM, the off-rate constant (koff) stood at 0.00424 s⁻¹ and the association rate constant (kon) amounted to 22600 M⁻¹ s⁻¹.

In test [4], “NPARP1 (N-terminal half of PARP1, amino acids 1-486, lacking the WGR and catalytic domains) (from UniProt P09874 1-486) (domain or fragment)” had a Kd of 17.3 nM, a koff of 0.00107 s⁻¹ and a kon of 61900 M⁻¹ s⁻¹. In test [5], this substance showed a Kd of 187 nM, a koff of 0.00424 s⁻¹ and an association rate constant (kon) of 22600 M⁻¹ s⁻¹. In test [6], this substance returned a Kd of 8.13 nM, a koff of 0.0244 s⁻¹ and a kon of 3e+06 M⁻¹ s⁻¹.

Turning to “PARP1 (poly(ADP-ribose) polymerase 1) (from UniProt P09874 1-1014) (enzyme)”, the koff in test [1] amounted to 0.000562 s⁻¹; in test [2] it was 0.00107 s⁻¹; in test [3], 0.000743 s⁻¹; in test [7], 0.000158 s⁻¹; in test [8] it was 0.000116 s⁻¹; in [9], 0.000274 s⁻¹. Also, the koff in test [10] came to 0.000328 s⁻¹. Further, the kon in [1] was determined as 2.28e+06 M⁻¹ s⁻¹; in [2], 1.93e+06 M⁻¹ s⁻¹; in [3], 1.06e+06 M⁻¹ s⁻¹; in [7] it was 825000 M⁻¹ s⁻¹; in [8], 2.43e+06 M⁻¹ s⁻¹; in test [9], 3.75e+06 M⁻¹ s⁻¹. In addition, in test [10], the kon is 7.5e+06 M⁻¹ s⁻¹. Moreover, the Kd in test [2] amounted to 0.554 nM; in test [3], 0.701 nM.

Take “poly(ADP-ribose) polymerase 1 (PARP1), full-length (from UniProt P09874 1-1014) (enzyme)”: the koff in test [11] is 0.000274 s⁻¹; in test [12] it was 0.000328 s⁻¹; in test [13] it was 0.000116 s⁻¹; in [14] it was 0.000158 s⁻¹; in test [4] it was 0.00107 s⁻¹; in test [5], 0.000743 s⁻¹. Also, the koff in test [6] turned out to be 0.000562 s⁻¹. The kon in test [11] worked out at 3.75e+06 M⁻¹ s⁻¹; in test [12], 7.5e+06 M⁻¹ s⁻¹; in test [13] it was 2.43e+06 M⁻¹ s⁻¹; in test [14] it was 825000 M⁻¹ s⁻¹; in [4], 1.93e+06 M⁻¹ s⁻¹; in test [5], 1.06e+06 M⁻¹ s⁻¹. In addition, the on-rate constant (kon) in test [6] came to 2.28e+06 M⁻¹ s⁻¹. Besides, the values for the Kd in [4] and in test [5] were 0.554 nM and 0.701 nM, respectively.
